Test system: Escherichia coli TOP10
Test: shrunken log2 fold change of peptide-encoding DNA abundance (4.5 h post-induction vs induction); higher = less antimicrobial activity (less host growth inhibition)
Conditions: time post-induction: 4.5 h; library: site-saturation at positions 5, 18, 19, 20
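Note: peptides expressed intracellularly from a pBAD plasmid library in pooled LB shake-flask culture, induced with 0.3% L-arabinose, DNA abundance read by NGS, three biological replicates, DESeq2 with apeglm shrinkage.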

Sequence | shrunken log2 fold change
RRIRQRPPRLPRPRPRPDQRPRP | -0.00141
RRIRHRPPRLPRPRPRPGAAPRP | 0.324
RRIRGRPPRLPRPRPRPCRLPRP | 0.123
RRIRPRPPRLPRPRPRPASGPRP | 0.194
RRIRKRPPRLPRPRPRPTVQPRP | 0.777
RRIRQRPPRLPRPRPRPLLTPRP | -0.235
RRIRGRPPRLPRPRPRPHVWPRP | 0.201
RRIRQRPPRLPRPRPRPCVIPRP | -0.409
RRIRGRPPRLPRPRPRPWVKPRP | 0.0642
RRIRWRPPRLPRPRPRPNFQPRP | 0.0517
RRIRYRPPRLPRPRPRPQNYPRP | -0.81
RRIRARPPRLPRPRPRPHRRPRP | 0.212
RRIRWRPPRLPRPRPRPMPNPRP | -0.0767
RRIRSRPPRLPRPRPRPRHPPRP | 0.215
RRIRDRPPRLPRPRPRPPYAPRP | 0.0432
RRIRTRPPRLPRPRPRPRAQPRP | 0.461
RRIRDRPPRLPRPRPRPWRWPRP | 0.196
RRIRERPPRLPRPRPRPSGGPRP | -0.0233
RRIRCRPPRLPRPRPRPNYIPRP | -0.84
RRIRKRPPRLPRPRPRPTIKPRP | 0.104
RRIRTRPPRLPRPRPRPGCIPRP | -0.22

Sequence | shrunken log2 fold change
RRIRLRPPRLPRPRPRPPGDPRP | 0.834
RRIRIRPPRLPRPRPRPMYNPRP | -0.429
RRIRSRPPRLPRPRPRPLFVPRP | -0.188
RRIRRRPPRLPRPRPRPQLTPRP | 0.122
RRIRQRPPRLPRPRPRPLQWPRP | 0.123
RRIRCRPPRLPRPRPRPMRIPRP | 0.497
RRIRRRPPRLPRPRPRPVKPPRP | 0.265
RRIRHRPPRLPRPRPRPEKAPRP | -0.0238
RRIRRRPPRLPRPRPRPKGRPRP | 0.135
RRIRYRPPRLPRPRPRPMVDPRP | -0.248
RRIRARPPRLPRPRPRPDLQPRP | 0.79
RRIRIRPPRLPRPRPRPSAEPRP | -0.0944
RRIRDRPPRLPRPRPRPGNRPRP | -0.0278
RRIRQRPPRLPRPRPRPMHAPRP | 0.254
RRIRVRPPRLPRPRPRPKPTPRP | 0.707
RRIRLRPPRLPRPRPRPDMPPRP | -0.269
RRIRYRPPRLPRPRPRPFEQPRP | -0.382
RRIRQRPPRLPRPRPRPSGGPRP | 0.0203
RRIRKRPPRLPRPRPRPECSPRP | 0.854
RRIRKRPPRLPRPRPRPIFPPRP | 0.319
RRIRCRPPRLPRPRPRPHCEPRP | -0.226

Sequence | shrunken log2 fold change
RRIRKRPPRLPRPRPRPNDQPRP | -0.101
RRIRERPPRLPRPRPRPSWPPRP | -0.079
RRIRYRPPRLPRPRPRPWLKPRP | -0.0198
RRIRGRPPRLPRPRPRPQVPPRP | -0.0856
RRIRTRPPRLPRPRPRPHGYPRP | -0.267
RRIRGRPPRLPRPRPRPYMHPRP | -0.355
RRIRVRPPRLPRPRPRPTNTPRP | -0.175
RRIRHRPPRLPRPRPRPLMPPRP | -0.107
RRIRRRPPRLPRPRPRPKVGPRP | -0.119
RRIRPRPPRLPRPRPRPQLKPRP | 0.202
RRIRKRPPRLPRPRPRPAVRPRP | 0.951
RRIRIRPPRLPRPRPRPHIPPRP | -0.482
RRIRWRPPRLPRPRPRPWMVPRP | 0.0468
RRIRWRPPRLPRPRPRPFCYPRP | -0.418
RRIRWRPPRLPRPRPRPWPTPRP | 0.336
RRIRFRPPRLPRPRPRPALWPRP | 0.625
RRIRNRPPRLPRPRPRPGGWPRP | 0.662
RRIRMRPPRLPRPRPRPQNEPRP | 0.155
RRIRTRPPRLPRPRPRPFGKPRP | -0.00963
RRIRQRPPRLPRPRPRPFIMPRP | -1.46
RRIRKRPPRLPRPRPRPQCSPRP | 0.136
